Results from patent US20080194611.

Target: S1P3 receptor (UniProt Q99500)
Sequence (Q99500 whole entry): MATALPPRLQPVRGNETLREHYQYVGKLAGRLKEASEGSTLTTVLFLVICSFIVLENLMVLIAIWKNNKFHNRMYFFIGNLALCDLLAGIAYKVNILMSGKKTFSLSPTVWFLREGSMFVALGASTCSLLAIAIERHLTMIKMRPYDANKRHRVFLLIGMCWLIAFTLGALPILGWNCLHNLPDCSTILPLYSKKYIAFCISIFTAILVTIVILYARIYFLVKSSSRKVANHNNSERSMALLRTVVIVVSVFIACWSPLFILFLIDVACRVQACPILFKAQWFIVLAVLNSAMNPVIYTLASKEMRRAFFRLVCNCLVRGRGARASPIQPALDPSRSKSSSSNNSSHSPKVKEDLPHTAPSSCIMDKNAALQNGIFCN

## recombinant active Src
  in vitro tyrosine phosphorylation of isolated S1P3 receptor (immunoblot): Src tyrosine phosphorylation of the S1P3 receptor
